The values below come from a protein production outcome set (Wang et al. 2014).

The series is described as follows: label from the status in PepcDB records.
“MHDTIPEYIRDGAQDMLAQGGVQKLGLKKEGGTWEIDGSIQSDDFQIYVSRISLTPSEHRASYVCNCSDSFSGVCRHVAATALKMLSTFDTRPGSDEPAKPRVEWRQSFRSFFSTALDPEPGKHYLIFRFHPEPGRLTVAFFRARQNKSGLSTVHNEITLEQIINNPEWCELSPQLVDVAKQVGQFVDYYGHRIEIPDGLVSWFFWAIRREYYLFWLDTESPCRIENTALGLKLHPRLGDDGLSFDVMLYREGKPPFSILGGENAATFHGQMPMWVCWNRSFYPVQTSLPPQLVQDLIRQHPSIPQEDMSEFLDRVWTRLPSSDLYGQEDFLKLMEPVFQPARYSPKLFLDEEGSLLTLEIQNVYETAHGEFYLAGPNPDFQTGSYTFEGTTFLIRRHQDEEAGLITQLSEMRFQPRSSRLWFLEPEEAIAFLLDAYPRLVEKYRVYGEKALSRYKVRLSQPVITAKVESNEEEKWFSLDIDVEYDGQKVPIDKIWKAWSQGKRYVQLKDGSYTSLPETWLERLGHKLQALGLDPDKPPQKQFKQFEAPVLDSLLDDLPGAETDSFWNSLRDKIRTFREIRAVNAPRGLNATLRGYQMQGLAYLNFLREYGFGGILADEMGLGKTVQTLSFVQHMVESGKIGPNLIVVPTSVLPNWEREAQKFVPELKRLIIYGTRREGMFKLIDESDLVVTTYALLRRDLEELQNHTFNCIILDEAQNIKNPNTITARSVRRIKADMRLCLSGTPIENNLFELWSLFEFLMPGFLGSQHAFQRGVIKPIKDGDCETLDYLRTRVRPFILRRTKSEVAKDLPPKIENTYYCALAEEQAELYTALARKLKEQVLADVDEKGLAKSQMSILDALLKLRQICCHPRLLKLDMPGFSTNLPSGKFDAFKDMITDIVEEGHKVLVFSQFVQMLHIIRSWLQISGTPFCYLDGTSKDRFEQVDKFNNSPDIPIFLISLKAGGTGLNLTSADYVIHYDPWWNPAVESQATDRTHRIGQTRQVFSYKLICQNTVEEKILKLQDMKRGVAEAIIPGQETWKSLTREDLEMLFDI”: the protein production result is listed as “failed”.

With “MHEFLKAFKDAFPHTISILLGYLLMGMTFGMLLVQQGYDYKVALFMSLFIYAGAVQFVAITLLSAQASLMNVVIVSLLVNARQTCYALSMLDRFKNTKWRLPYLAHALTDETFALLNLYAPKEGVSEKDFIFSISLLNHSYWIFGSLVGSLVGSHFSFDTQGMEFVMTAIFIVLFMEQYKRTTNHKNAWLGIVIAVVCLALFGTEYFLLIALVLMVLALMLFRKQLEC”, the protein production result was “failed”.

For the sequence “MHFHLRNLRLHMETNGTPQSPAGDWRSYERMLLPPIQDLHKLGVYEEHGGYDRLRRVLEDDAFEPSDVTDEVKASGLTGRGGAGFPTGIKWTFMPEPDERPRFIGVNADESEPGTFKDRQVMEYNPHLMLEGILLAGYALHIDTAYVYIRGEYTDWIVHLKEQLENAYEAGYVGENIMGSDFTMDIVLHKGAGAYICGEETSLMESLEGKRGYPRYKPPFPAQSGIFGSPTTINNAETLAHVPLIVEQGGEAYSNIGAGDMPGPALYGMSGHVKNPGVYEFPTGMLLTDMIYDVCGGMARDKDLKAVVPGGSSVPPVPADQIDGISMNDESLGEVGSRTGTFCPLVLDEETDMVSFLRRVAHFYQDETCGQCTPCREGTSWLEKILARIDEGEGRMRDIDLLLELCDNMDGGRTICAFADGAVGPVRATVKRFREEFAAKCQASVHPVSTEVSAGAGSAVAATE”, the protein production result was “failed”.

In the case of “MHFRDTSERQSDAVNESSLDSVHLQMIKGMLYQQRQDFSSQDSVSRKKVLSLNLKQTSKTEEIKNVLGGSTCYNYSVKDLQEISGSELCFPSGQKIKSAYLPQRQIHIPAVFQSPAHYKQTFTSCLIEHLNILLFGLAQNLQKALSKVDISFYTSLKGEKLKNAENNVPSCHHSQPAKLVMVKKEGPNKGRLFYTCDGPKADRCKFFKWLEDVTPGYSTQEGARPGMVLSDIKSIGLYLRSQKIPLYEECQLLVRKGFDFQRKQYGKLKKFTTVNPEFYNEPKTKLYLKLSRKERSSAYSKNDLWVVSKTLDFELDTFIACSAFFGPSSINEIEILPLKGYFPSNWPTNMVVHALLVCNASTELTTLKNIQDYFNPATLPLTQYLLTTSSPTIVSNKRVSKRKFIPPAFTNVSTKFELLSLGATLKLASELIQVHKLNKDQATALIQIAQMMASHESIEEVKELQTHTFPITIIHGVFGAGKSYLLAVVILFFVQLFEKSEAPTIGNARPWKLLISSSTNVAVDRVLLGLLSLGFENFIRVGSVRKIAKPILPYSLHAGSENESEQLKELHALMKEDLTPTERVYVRKSIEQHKLGTNRTLLKQVRVVGVTCAACPFPCMNDLKFPVVVLDECSQITEPASLLPIARFECEKLILVGDPKQLPPTIQGSDAAHENGLEQTLFDRLCLMGHKPILLRTQYRCHPAISAIANDLFYKGALMNGVTEIERSPLLEWLPTLCFYNVKGLEQIERDNSFHNVAEATFTLKLIQSLIASGIAGSMIGVITLYKSQMYKLCHLLSAVDFHHPDIKTVQVSTVDAFQGAEKEIIILSCVRTRQVGFIDSEKRMNVALTRGKRHLLIVGNLACLRKNQLWGRVIQHCEGREDGLQHANQYEPQLNHLLKDYFEKQVEEKQKKKSEKEKSKDKSHS”, the protein production result was “failed”.

Take “MHIAIIGDQAATRQATTQLLSQLTTPTQPLQVTAYPTAEAFLFADQPADLLLLDIKLGSGMDGMTLAKQIREHDAATAIAFVSNYDEFVFDGYDVNALDYVIKPITSDKLQHLISKVAAQTQPKLLVFTTANGIQRVAMYDISAIEVTDHRLQVHTQKMTYTVAGQLKEFLPQLDENFIQIYRSIVINLNFLSQLEKNTVVMADGTSYPVSRQQAPLVKQAFFKHFRGLAHDSELEHHHHHH”: the protein production result is reported as “failed”.

For “MHIKSAIIVVSDRISTGTRENKALPLLQRLMSDELQDYSYELISEVVVPEGYDTVVEAIATALKQGARFIITAGGTGIRAKNQTPEATASFIHTRCEGLEQQILIHGSTHTHLAGLSRGIVGVTGRDDHAALIVNAPSSSGGITDTWAVISPVIPNIFEGLDAS”, the protein production result is given as “not failed”.

Consider “MHKEIAKELLLLAGGKNNIISISHCTTRLRFDVKDETKIDIHAIENLQGVQGTFFRYGLFQIIFGAGVVNKIYKEVVHVWETAPSEEPVHQKKASRKLNPAAAFAKTLSDI”, for which the protein production entry is listed as “failed”.

Regarding “MHLKNNQTLANGATVTIYPTTTEPTNYVVYLHGGGMIYGTKSDLPEELKELFTSNGYTVLALDYLLAPNTKIDHILRTLTETFQLLNEEIIQNQSFGLCGRSAGGYLMLQLTKQLQTLNLTPQFLVNFYGYTDLEFIKEPRKLLKQAISAKEIAAIDQTKPVWDDPFLSRYLLYHYSIQQALLPHFYGLPENGDWSAYALSDETLKTFPPCFSTASSSDEEVPFRYSKKIGRTIPESTFKAVYYLEHDFLKQTKDPSVITLFEQLDSWLKER”, the protein production entry is “not failed”.

As to “MHLLQAVSYRYLILAVIGLPEKYRKPQALACHHRRTAMNRLSAFALAAAIGIAAAPVAQAGELWRATGLEQPESALFDAANNRIIVSNIVGNPGEADGNGYLSVLSLDGKTITQHWTDGMDAPKGMAISGGKLYVADITKVRVVDLASGKLIASIVVPNAVFLNDMTSDHTGKVYVSDMLADTIYRIDGDRPELFVRDALLASPNGVFADGDRLIVASWGKGIKPDFSTAEPGGLLAVDLASKAVSPLPGAQKFADLDGVIAIGDTIYATAYMTGTLYRYKAGGAPEAVAHFKPGSADIGTDGKSILYVPLMNEGEVAALKLD”, the protein production entry is given as “failed”.

For “MHLQKLKNIVWTKRIGHLFERVTDIENIKRAIKRAAKRKTHRPSVQRILNDIDSYARKIQEMLVNETFVPAKYTIREIYDGIKKKKRVIAVPRFYPDQCIHHAFVQVFREIVEHGADKFSCGCVPGKGTDGARKMIKHWIKSDPIGTSKVLKLDVHHCYPTMNHEALRQKLEKKIKDRKLLNLAFKLIASYQQPMADHTRMLPEVDAVGIPVGLYTSPWFCNFFFQDIDHMIAEKTGAKHHTRYVDDIVLFDSNKRRLHKALRMIADELRKVKMQVKANWQVFPLKDRPLDFLGYKFHAGAWTTLRKSIMFRISHKAKKISKISYISPTNASGMISYMGFIYNSDSWNFWKERVKPFINLKLLKGVVSNENRKQHQAACAA”, the protein production entry is given as “failed”.

With “MHLRDRPGFGPGGPFRFRALPRAADKGTMMFKKILIANRGEIACRVIKTARKMGIQTVAVYSDADRNALHVSMADEAIHIGPPPANQSYIVIDKIMEAIKASGAEAVHPGYGFLSERMDFAAALEAAGVVFIGPPSGAIEAMGDKITSKKLAKEAGVSTVPGYMGLIADADEAVKISNEIGYPVMIKASAGGGGKGMRIAWSEAEVKEGFESSKNEAANSFGDDRIFIEKFVTQPRHIEIQVLADKHGNCVYLHERECSIQRRNQKVIEEAPSPFLDEATRKAMGEQACALAKAVGYASAGTVEFIVDGQKNFYFLEMNTRLQVEHPVTELITGIDLVEQMIRVAAGEKLPFQQSDLKINGWAMESRLYAEDPYRNFLPSIGRLTRYRPPVESVTPTSVVRNDTGVYEGGEISMYYDPMIAKLCTWAPTREAAIEEMRLALDTFEVEGIGHNLPFVGAVMDHPRFVKGDITTAFIAEEYPDGFQGAVLDEPTLRRVAAAAAAMNRVAEIRRTRISGTMNNHERHVGVDWVVALQGESYHVSIAADREGSTVSFSDGSSLRVTSDWTPGQPLASLMVDGRPLVMKVGKIPMGFRLRLRGADLKVNVRTPRQAELALLMPEKLPPDTSKYLLCPMPGLVVKINVAEGDEVQEGQALATVEAMKMENILRAERRGTVKKIAAAPGASLRVDDVIMEFE”, the protein production entry was “failed”.

In the case of “MHLSAYLLLVASLLFALFFAGTAAIQIWQGRTTALPWMEKGHLMLTAFMSVASAVLLHALANFDFSLVYVASYTDRALPLFYRLTAFWAGQAGSMLFWGWSVALFGVFFLFSPVYRRVSEPTRMWFWLLFLAMMGFFLLVLTCWSNPFTVVDPAPADGNGLNPLLQNPGMIFHPPLLFLGYGGFAIPGCLALAQSLSGMRLSEGAWADHARPFTLVAWLFLTAGIVLGGWWAYMELGWGGYWAWDPVENASLIPWLIASAYLHTAVIEARRNKLHRVNTFLMALTTISAFFATYLVRSGVVESLHAFGDGGVGTPLLIFIIVFTAVALGGSILWKHPDAKPLSGVESREGFLVMVAWVLLALGAIILVATMWPVFSKFWVDKPVGLEPAFYNRVCLPLFAVLVVMLAICPWLGWKGGLRNKVGAVTALGLFVGAAGGIWAAGYTIPTAVLGAAGAIAALGGIVMLLATEPHLRRSPQSLAAYGVHIGLALTALGVAFSGPYKTEHEVIMQQGDTVQVAGYDVTFKALYEGEGPGYIFIEAELDVKKNGSDVGMAQPQRRIYSKFGKQAFAEASTIPGLGNEFYAVLLGVDREGKATLHLNVTPLINWVWIGSIIMCLFPFIGMRRRKTAEA”, the protein production entry was “failed”.

Consider “MHLSLMISRHYINRMKLSLMHISILAGIPEEFKVNIYIGWLFKLIPLIMGLICIALGGFVLESSGQSEYFVAGHVLISLAAICLALFTTAFIIISQLTRGVNTFYNTLFPIIGYAGSIITMIWGWALLAGNDVMADEFVAGHVIFGVGMIAACVSTVAASSGHFLLIPKNAAGSKSDGTPVQAYSSLIGNCLIAVPVLLTLLGFIWSITLLRSADITPHYVAGHVLLGLTAICACLIGLVATIVHQTRNTFSTKEHWLWCYWVIFLGSITVLQGIYVLVSSDASARLAPGIILICLGMICYSIFSKVWLLALVWRRTCSLANRIPMIPVFTCLFCLFLASFLAEMAQTDMGYFIPSRVLVGLGAVCFTLFSIVSILEAGSAKK”, for which the protein production entry is listed as “failed”.

As for “MHLTKTWLAQLPLTDIQQVQPVSGGDINAAFQIITRHHQYFLKVQPHNDVTFFDHEVAGLRLLGAVTKTPRVIASGTIATDGYLLLDWLATGTGSQSALGAAVAKVHHQHHAQFGLDHDFTAGKLPKINHWQTDWATFYTQQRLDVLVNLAKEHHLWSETREMHYHRLRQQLLQDSHMHTVKPSLLHGDLWSGNYLFDTTGTPVLIDPDVFYGDREMDLAMTTIFGGFDTDFYQAYQAAYPVAPGMQDRLPSYQLYYLLAHLNLFGETYGPAVDRILMQY”, the protein production result is “failed”.
